From patent US7582437 (JAPAN SCIENCE AND TECHNOLOGY AGENCY, dated 2009)
Substitutions are numbered along the chain they refer to. In names and notes the source's numbering stands. Blank lines part the entries; values can stand above or below the binder they belong to.

How the values were obtained:
human TLR3 [1] = molecular target: T1, human TLR3 (human, UniProt O15455 24-904); assay: stated in the description with reference to the Examples (reporter gene assays)
T1 construct: whole, on cells; also called human Toll-like receptor 3

human TLR3 [2] = molecular target: T1, human TLR3; assay: stated in the description with reference to the Examples (dominant-negative effect in reporter gene assays)
Experimental: By using the gene transfecting cationic lipid "Lipfectamine 2000" reagent (made by Gibco), HEK293 cells in 24-well plates were transfected with (i) 0.1 µg of luciferase-linked NF-κB reporter gene (made by Stratagene) (c.f. FIG. 13(b)) or 0.1 µg of p125.luc reporter plasmid (c.f. FIG. 13(a)), (ii) TICAM-1 TIR (0.1 ng and 10 ng) or a plasmid (0, 0.2 µg, 0.6 µg), the plasmid encoding TICAM-1 TIR mutant TIR P434H of TICAM-1 TIR, and (iii) empty vector, TLR2 (0.1 µg), or TLR3 (0.6 µg).
A total amount (0.8 µg to 1.0 µg) of transfected DNA was adjusted by adding the empty vectors. Moreover, plasmid vector pCMVβ (made by Clontech; 5 ng) was used as an internal control.
Twenty four hours after the transfection, the cells were stimulated for 6 hours with 100 nM of MALP-2 (TLR2 stimulation) or 10 µg/ml of poly (I:C) (TLR3 stimulation), and then lyzed with the lysis buffer (made by Promega). Luciferase activity that indicate the interferon β activation or NF-κB activation caused by stimulation after the transfection in thus prepared lysates were measured according to the manufacturer's instructions. This experiment was repeated three times. Representing values thereof were considered as measurement values. Level of the interferon β activation is illustrated in FIG. 13(a), and level of the NF-κB activation is illustrated in FIG. 13(b).

binding result (human TLR3 [1]): binds
B1: human TICAM-1 TIR (mutant made of almost only the TIR domain, amino acids 387 to 556 of human TICAM-1) (other)
chain: ESSSEQKFYNFVILHARADEHIALRVREKLEALGVPDGATFCEDFQVPGRGELSCLQDAIDHSAFIILLLTSNFDCRLSLHQVNQAMMSNLTRQGSPDCVIPFLPLESSPAQLSSDTASLLSGLVRLDEHSQIFARKVANTFKPHRLQARKAMWRKEQDTRALREQSQHL
notes: Expressed in HEK293 cells from pEFBOS; also called TIR of TICAM-1; pEFBOS-TICAM-1 (TIR)

binding result (human TLR3 [2]): binds
B2: dominant-negative mutant P434H of human TICAM-1 TIR (other)
chain: B1 chain with P48H
notes: Expressed in HEK293 cells from pEFBOS with an initiator Met; also called TIR P434H
